Measured values taken from PMC5786021, “A dynamic allosteric pathway underlies Rad50 ABC ATPase function in DNA repair” (Scientific Reports, 2018).

Key:
Experiment in all cases: reconstitution and co-purification by ion-exchange chromatography; Rad50^NBD mixed with a slight excess of Mre11^HLH, heated at 60 °C for 10 min, cooled, complex purified on a HiTrap SP HP column; complex then used for methyl-TROSY NMR at 50 °C
Conditions in all cases: both partners purified
[1] = biological target: T1, P. furiosus Rad50^NBD (R805E) (P. furiosus, UniProt P58301 1-195; P58301 709-882, R805E)
T1 construct: Rad50, Pyrococcus furiosus, N-terminal ABC-ATPase sub-domain, residues 1-195; flexible linker that replaces the coiled-coil and Zn-hook; Rad50, Pyrococcus furiosus, C-terminal ABC-ATPase sub-domain, residues 709-882; Point mutation made by Quikchange in the Rad50^NBD construct; also called basic switch mutant; source: E. coli BL21(DE3) C41, purified (HisTrap, HiTrap SP, Superdex 200)

[2] = biological target: T2, P. furiosus Rad50^NBD (V157M) (P. furiosus, UniProt P58301 1-195; P58301 709-882, V157M)
T2 construct: Rad50, Pyrococcus furiosus, N-terminal ABC-ATPase sub-domain, residues 1-195; flexible linker that replaces the coiled-coil and Zn-hook; Rad50, Pyrococcus furiosus, C-terminal ABC-ATPase sub-domain, residues 709-882; Point mutation made by Quikchange in the Rad50^NBD construct; source: E. coli BL21(DE3) C41, purified (HisTrap, HiTrap SP, Superdex 200)

[3] = biological target: T3, P. furiosus Rad50^NBD (V160M) (P. furiosus, UniProt P58301 1-195; P58301 709-882, V160M)
T3 construct: Rad50, Pyrococcus furiosus, N-terminal ABC-ATPase sub-domain, residues 1-195; flexible linker that replaces the coiled-coil and Zn-hook; Rad50, Pyrococcus furiosus, C-terminal ABC-ATPase sub-domain, residues 709-882; Point mutation made by Quikchange in the Rad50^NBD construct; source: E. coli BL21(DE3) C41, purified (HisTrap, HiTrap SP, Superdex 200)

[4] = biological target: T4, P. furiosus Rad50^NBD (V156M) (P. furiosus, UniProt P58301 1-195; P58301 709-882, V156M)
T4 construct: Rad50, Pyrococcus furiosus, N-terminal ABC-ATPase sub-domain, residues 1-195; flexible linker that replaces the coiled-coil and Zn-hook; Rad50, Pyrococcus furiosus, C-terminal ABC-ATPase sub-domain, residues 709-882; Point mutation made by Quikchange in the Rad50^NBD construct; source: E. coli BL21(DE3) C41, purified (HisTrap, HiTrap SP, Superdex 200)

Measured: binding result

T4 sequence (P58301 other isoform, or with tags, fused parts or gaps V156M | V156M | V156M V156M): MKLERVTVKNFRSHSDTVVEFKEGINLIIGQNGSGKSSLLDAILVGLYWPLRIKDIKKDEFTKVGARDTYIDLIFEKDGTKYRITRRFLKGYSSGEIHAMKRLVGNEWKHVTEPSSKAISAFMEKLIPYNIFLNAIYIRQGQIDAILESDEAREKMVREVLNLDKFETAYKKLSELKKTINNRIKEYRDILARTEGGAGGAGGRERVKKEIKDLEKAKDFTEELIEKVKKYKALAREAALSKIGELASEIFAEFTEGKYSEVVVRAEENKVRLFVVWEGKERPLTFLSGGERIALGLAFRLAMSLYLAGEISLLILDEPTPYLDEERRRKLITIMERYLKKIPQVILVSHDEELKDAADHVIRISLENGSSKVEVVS
T2 sequence (P58301 other isoform, or with tags, fused parts or gaps V157M | V157M | V157M V157M): as the sequence (P58301 other isoform, or with tags, fused parts or gaps V156M | V156M | V156M V156M) above, with M156V, V157M counted along it
T1 sequence (P58301 other isoform, or with tags, fused parts or gaps R805E | R805E | R805E R805E): as the sequence (P58301 other isoform, or with tags, fused parts or gaps V156M | V156M | V156M V156M) above, with M156V, R300E counted along it
T3 sequence (P58301 other isoform, or with tags, fused parts or gaps V160M | V160M | V160M V160M): as the sequence (P58301 other isoform, or with tags, fused parts or gaps V156M | V156M | V156M V156M) above, with M156V, V160M counted along it

B1: P. furiosus Mre11 helix-loop-helix domain (Mre11^HLH, aa344-426) (domain or fragment)
chain: not shown
notes: Mre11, Pyrococcus furiosus, helix-loop-helix domain, residues 344-426, sub-cloned from codon optimized full-length Pf Mre11; Protonated (unlabelled) in the NMR samples; source: E. coli BL21(DE3) C41, purified (HisTrap, HiTrap Phenyl HP); not shown: NusA, N-terminal, cleaved; His6, N-terminal, cleaved
binds: all assays above
